This is an account of results in US20250115676A1.

Where a chain is given by its changes, count along the chain named.

For test [1], the target named is shADAM9-His (His-tagged soluble human ADAM9) (human) (UniProt Q13443). In words: BIACORE SPR; antibody captured on Fab2 goat anti-human Fc surface, shADAM9-His 6.25-100 nM as analyte; 1:1 Langmuir.
Test [2] has the same target. Kind of test: binding affinity study (BIACORE, Table 7); reference not named.
For test [3] the target is unchanged. In words: BIACORE SPR; antibody captured, huADAM9-His as analyte.

B1: chMAB-A (antibody, V domains shown)
VH: QVQLQQPGAELVKPGASVKLSCKASGYTFTSYWMHWVKQRPGQGLEWIGEIIPINGHTNYNEKFKSKATLTLDKSSSTAYMQLSSLASEDSAVYYCARGGYYYYGSRDYFDYWGQGTTLTVSS
VL: DIVLTQSPASLAVSLGQRATISCKASQSVDYDGDSYMNWYQQIPGQPPKLLIYAASDLESGIPARFSGSGSGTDFTLNIHPVEEEDAATYYCQQSHEDPFTFGGGTKLEIK
B1: the Kd in test [1] worked out at 3.6 nM.

B2: hMAB-A (2.3) (antibody, V domains shown)
VH: EVQLVESGGGLVKPGGSLRLSCAASGFTFSSYWMHWVRQAPGKGLEWVGEIIPIFGHTNYNEKFKSRFTISLDNSKNTLYLQMGSLRAEDTAVYYCARGGYYYYGSRDYFDYWGQGTTVTVSS
VL: DIVMTQSPDSLAVSLGERATISCRASQSVDYSGDSYMNWYQQKPGQPPKLLIYAASDLESGIPARFSGSGSGTDFTLTISSLEPEDFATYYCQQSHEDPFTFGQGTKLEIK
Regarding B2, in test [2], the fold increase in affinity amounted to 2 fold. Moreover, the Kd in test [1] was 1.3 nM.

B3: hMAB-A (2.2) (antibody, V domains shown)
VH: B2 VH
VL: B2 VL with R24K
With B3, in test [3], the Kd was determined as 0.6 nM, the koff worked out at 0.00055 s⁻¹ and the kon was 900000 M⁻¹ s⁻¹. The fold increase in affinity in test [2] amounted to 2 fold. This molecule had a Kd in test [1] of 1.4 nM.

B4: hMAB-A (1.1) (antibody, V domains shown)
VH: B2 VH with F55N
VL: B2 VL with R24K, S32D
In test [1], B4 gave a Kd of 3.5 nM.

B5: hMAB-A (2D.2) (antibody, V domains shown)
VH: B2 VH with G105T, S106G, R107K, D108G, Y109V, F110L
VL: B2 VL with R24K
In test [3], B5 yielded a Kd of 0.8 nM, a koff of 0.00058 s⁻¹ and a kon of 690000 M⁻¹ s⁻¹.

B6: hMAB-A (2B.2) (antibody, V domains shown)
VH: B2 VH with G105I, S106G, R107K, D108G, Y109V, F110L
VL: B2 VL with R24K
In test [3], B6 had a Kd of 0.6 nM, a koff of 0.00039 s⁻¹ and a kon of 610000 M⁻¹ s⁻¹.

B7: hMAB-A (3.3) (antibody, V domains shown)
VH: B2 VH with K63R, K65Q, S66G
VL: B2 VL
B7 displayed a fold increase in affinity in test [2] of 2 fold. Further, the Kd in test [1] was found to be 1.4 nM.

B8: hMAB-A (4.4) (antibody, V domains shown)
VH: B2 VH with M34I, K63R, K65Q, S66G
VL: B2 VL with M37L, H96Y, E97S, D98T
On to B8, for which the Kd in test [1] was determined as 2 nM.

B9: hMAB-A (2C.2) (antibody, V domains shown)
VH: B2 VH with G105P, S106R, R107F, D108G, Y109W, F110L
VL: B2 VL with R24K
For the molecule B9, in test [3], the Kd turned out to be 1.4 nM, the koff amounted to 0.00081 s⁻¹ and the kon worked out at 590000 M⁻¹ s⁻¹.

B10: hMAB-A (2I.2) (antibody, V domains shown)
VH: B2 VH with G105P, S106R, R107Q, D108G, Y109F, F110L
VL: B2 VL with R24K
Regarding B10, in test [3], the Kd is 0.4 nM, the koff is 0.00023 s⁻¹ and the kon is 660000 M⁻¹ s⁻¹.
